The values below come from PMC11565788 (bioRxiv, 2024).

First the molecules themselves.
B1: AAGAB psGD (residues 2-177), tagless, coexpressed and co-purified with AP1σ3-His6 (domain or fragment, human, UniProt Q6PD74 2-177, looked up)
chain: AAGVPCALVTSCSSVFSGDQLVQHILGTEDLIVEVTSNDAVRFYPWTIDNKYYSADINLCVVPNKFLVTAEIAESVQAFVVYFDSTQKSGLDSVSSWLPLAKAWLPEVMILVCDRVSEDGINRQKAQEWCIKHGFELVELSPEELPEEDDDFPESTGVKRIVQALNANVWSNVVMK
B2: AP1σ3-His6 (full-length human AP1S3 with C-terminal His6 tag) (natural protein, UniProt Q96PC3-1 1-154, looked up)
chain: MIHFILLFSRQGKLRLQKWYITLPDKERKKITREIVQIILSRGHRTSSFVDWKELKLVYKRYASLYFCCAIENQDNELLTLEIVHRYVELLDKYFGNVCELDIIFNFEKAYFILDEFIIGGEIQETSKKIAVKAIEDSDMLQEVSTVSQTMGER

For experiment [1], the target named is B2. Nature of the experiment: SEC.
Experiment [2] concerns the target B1. Put plainly: crystal structure.

Turning to B1, in experiment [1], the stoichiometry N (commonly the number of molecules, sites or subunits per partner or assembly) came to 1.
Take B2: the binding result in experiment [2] is “binds”.
